In patent CN114652851A (STONE BIOPHARMACEUTICAL CO LTD, dated 2022):

Target: T1, Human TROP2蛋白 (human, UniProt P09758 27-274, limits assumed)
T1 construct: also called 人TROP2
T1 sequence (looked up): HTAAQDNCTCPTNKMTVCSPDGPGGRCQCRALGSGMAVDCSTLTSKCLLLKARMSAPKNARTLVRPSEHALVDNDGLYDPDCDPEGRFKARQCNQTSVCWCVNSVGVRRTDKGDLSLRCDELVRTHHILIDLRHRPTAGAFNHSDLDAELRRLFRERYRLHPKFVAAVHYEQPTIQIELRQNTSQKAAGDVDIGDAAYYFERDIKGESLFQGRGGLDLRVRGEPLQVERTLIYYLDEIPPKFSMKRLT
Test: ELISA, TROP2 protein incubated with antibody dilutions, goat anti-human IgG (H+L) secondary antibody

B1: SY02人源化抗体 (人源化抗TROP2抗体SY02) (antibody, human IgG1, kappa, V domains shown)
VH: QVQLVQSGAEVKKPGSSVKVSCKASGYTFTDYSINWVRQAPGQGLEWMGVISTYYGDASYNQKFKGRVTITADESTSTAYMELSSLRSEDTAVYYCARYGDGYNQFDYWGQGTLVTVSS
VL: DIQMTQSPSSLSASVGDRVTITCRVSESVDSYGNNFMHWYQQKPGKAPKLLIYRASNLESGVPSRFSGSGSGTDFTFTISSLQPEDIATYYCQQSYEDPYTFGGGTKLEIKR
notes: also called 裸抗SY02
B1: binds.
